assay: soluble on expression in E. coli; label from the status in PepcDB or PDB records

| Sequence | soluble on expression in E. coli |
| --- | --- |
| MSLSATNTNLHDLLARRIPGHALEQPFYTSPEIYQQDLEHIFYREWLYAIPACQLVKPGSYATLRIGAYNIVIVKGRDGEIRAFHNSCRHRSSIVCKAREGQVAKLVCPYHQWTYDLDGKLIWANSMGPDFDPTQHGLRSVALRNLKGLIYICLADTPPDFEAFARAAEPYLGVHDLQDAKVAYSSSIIEKGNWKLVWENNRECYHCSGNHPALCRSFPLDPEVAGVSADGSISQRIQDHFDACAAAGAPAQFLLGGDGQFRLARMPLQETAVSYTMDGKAAVARQLGRVAKPDAGSLLVFHYPSTWNHFLPDHSLTFRVTPISPTETEVTTTWLVHKDAVEGVDYDLQHLTEVWIATNDEDREIVETNQEGIFSPAYIPGPYSPDWESGVIQFIDWYAAWMERSLAPSRMAAEEGHHHHHH | soluble |
| MSSKNPVDEQPCCGSHEGSHQDPAPETLVVEKEVNNGEKKIRIAVVGCSHGEMDAIYETMTLIEQKNGYKFDLLICCGDYQAVRNYGDLPHMSIPPKYRSLQTFYKYYSGEQKAPVLTLFIGGNHEASGYLCELPNGGWVAPNIYYMGFANCIRFANLRIAGLSGIFSQGDFQFSHYERPSFSERDVKSAYHVRNVDMFRLRQLKSDNENKISNPIDIMLSHDWPGGIPDFGDKEWLFRKKDLFEADHNSGKLGNPSGMKLIYDCRPRYYLAAHLHIAFAALVPHKGSGSGRPQPTRFLSLDKPIPGRKFMQALELNVADDAKLELSYDPQWLAILRNTDLLTTGTKEQLILPDMASNRPCVYERKDFRPTAEELKEIEKLGDLTIRTDSFQQTAPPLKEITESSKNVPPSAYYRNPQSAEFCQWLGIRDLNQMLVEKTSEHVGTPYYMMTQDDANAKPNQDDVDFGDEDFVIDRGHTSDEPEAKKSRLDEDKFEAVPSE | soluble |
| MFGFGGFTRDLGIDLGTANTLVYVKGKGVVLREPSVVALQTDTKQIVAVGSDAKQMIGRTPGNVVALRPMKDGVIADYETTATMMKYYIQQAQKSNGFFSRKPYVMVCVPSGITAVERRAVIDATRQAGARDAYPIEEPFAAAIGANLPVWEPTGSMVVDIGGGTTEVAIISLGGIVTSQSVRVAGDDMDDSIIQYIKKSYNLMIGERTAEALKLEIGSAGEPEGIEPMEIRGRDLVSGLPKTVLIQPEEIADALKDTVDAIVESVKNTLEKTPPELAADIMDRGIVLTGGGALLRNLDKVISEETNMPVLVAEDPLDCVAIGTGKALDNIDLFKTAAR | not soluble |
| MSLDVAIGEVLAEVAAQEGDRLALVEVVPNGMDSPVGAASTSRRWTYAQLNDDARRCASWLLTQFKTGDHICVWAPNVPEWIVLQYGAALSGLVLVTANPALKASELEFVLQQSQSVALFHLDAFRGVETGAVARSFASAKLRCISFSGWLAEIRRTEIGALPRIDPGQPAQIQYTSGTTGRPKGALLHHRGLITNASYVAARAGLDHSVLLSPMPLFHTAGSIMSVLGCLNSRSTLVLPLLFDPGTVLDAIAHTRADTLFGVPTMLLAVIDAQLQAPRDLSSLRVAASGGAQVPPELHRRIHDALKLPLLTVFGQTELSPIVSQTCIDDPDEQRIHSVGRPLWNVEVRIVDPNGDRVVVIGVEGEIQVRGYQTMLGYFNAPKETSETITADGWLRTGDLGAMDEAGYLRITGRLKDMIIRGGENIYPAEVEACLLRHPAVADISVFGAPDDKWGEVVAAAVRLVPDVPVTATELSAFCKTEIAPHKAPTVWYACTGFPLTASGKIQKFRLRDAAVEGELQRLSEGHHHHHH | soluble |
| MAHHHHHHMLRCAPSKLFRATPLLRVWAAEEDDASAPRTTFRNVRPGRLLRLWRQMRHRAWMLYAWDEEWVSPMQEGYLHQQRLEQVCFAPLSAYGVVPGSYCDPLLYNTKSTSPFRWHVANVQGDIVGHWYMDADELFRIEDWQPREPDDPLEMFPRPPPMLLRWDESVDEHGNRAFRYRYHYDMMGPTGKWEAYPRCPFSHLYHGGPDQHGRAEGYGFQQGHLLRCDEAEEEVLRRIMEGEDREWEMVKRTEAVQEPWSYPGKIRPRDFEGAVERAKARFRERVRHGKETDPSEDPEYDLVQASEYVEPRDGRRAEWRHLWASGRKPGESLPFHVAFNDGLCFEGNEGGPPAHPAAHYEAAHYEAPYGRYEDADAAAARAAEAAHNAACEQSLSEAMARHRRLFGDTSGAPSGPKAPLPTGCRPMRCAPGPPLPSGRSRSSGARAVGSGPVCGAGARDGESEGEGRGGEAPLGYGARACSWRRREGWV | not soluble |
| MILLIDNYDSFVFNVKSMLEQLSNDEILVRRNDAISLSEIKNLNPTHIILSPGPKHPSQSGICLEIFKARLNIPVLGICLGHQALALAFDSLVVKMQEPMHAKNSLIKQCRENELFSNLPSNFSVMRYHSLEVKQLSDELEILALDEKGVIMALGHKNLPYYGVQFHPESYFSEYGLQLFSNFLKQDIKKPQKQENPLSFYLQKMSENHFLQSDDFEQICKIIMSKDYEILQVVALLILITEKSLNEKSLSAFVRQILRYSQTFSDESEMIDICGTGGDGFKSINVSTTSAFILAALGVKVAKHGNRAISSSSGSTDVLEALNITTPNTLESVLKQLNNQGLSFLHAPFFHPLVGELKEIRSRLGVRTVFNVLGPLLHPNLKLKYQLMGNYHAPVHRLLIEVLKNLGRKKALVVRGNDGMDELSICDESKIYELCEGEILEYSICPEQFGFKRAFHSEIIGSSAYDNAKDLKDILSGRMQGAKFDLVVLNAMFALYTANKASSPLVAKDMILEAIYSGKVIEYFKEYQAYAKA | not soluble |
| MHKLIIKYNKQLKMLNLRDGKTYTISEDERADITLKSLGEVIHLEQNNQGTWQANHTSINKVLVRKGDLDDITLQLYTEADYASFAYPSIQDTMTIGPNAYDDMVIQSLMNAIIIKDFQSIQESQYVRIVHDKNTDVYINYELQEQLTNKAYIGDHIYVEGIWLEVQADGLNVLSQNTVASSLIRLTQEMPHAQADDYNTYHRSPRIIHREPTDDIKIERPPQPIQKNNTLEHHHHHH | soluble |
| MGKSLDEQFEAAVWIINALPKNGPIKTSINDQLQMYSLYKQATSGKCDTIQPYFFQIEQRMKWNAWNQLGNMDEAEAKAQYVEKMLKLCNQAEAEHNLMEFLSDPTIADLLPKQNQLREHFATLGRTTVKGFEGETVEINGVSISF | not soluble |
| QALQTLVEKISIVFFQKPFLHQATFNRRLKTTGGRYHLASHHLDFNPTVFLKYGQEELEKVIKHELCHYHLHLAGKGYQHKDKDFKELLAKTGGARYAPPLVERKKAVFHQYQCQSCGEVILRKRRIDTTRYVCGKCHGRLSWQ | not soluble |
| MECYVFTPKGRIIKLPRGATIVDFAYAVHTDIGNSCVSARVNRILAPLHSVLENGQTIEIITAPWARPNPLEHHHHHH | not soluble |
| GPGSMSSSDQFLVDELRSRLKRRRADIVRYLDGLFYEDCRRIIECVSELDSDNLFLRNPSSLPDYAQHVTRPMYWELIQRKLQRYEYRAAADFMADMRAVVNNCYLYNGIQAPASKLARAIEVLMEDRFVTELRAAPVQPAEVK | not soluble |
| MPRFMRTQTKLRTIIRSNLMLNSSSMEISRSLTSWQKGARSIIHRALQYLEGNLTVIEHFPDQTQTTHEQFGQDKPDAIHAVIEIKHPDFYSRVLKGGSIAAAEAYMEGWWESPNLTALMQLMAANLGTLDKLESQSSPVTQWLNRFTHWLKRNTIDQAKDNIHQHYDLGNELYQLFLDEEMLYSSALFTQPELSLEQAQQAKMQRLCEQLQLKPTDHVLEIGTGWGAMAIYMAQHYGCKVTTTTISEEQYAYAQQKITALGLNNQITLLKQDYRLLSGQYDKLVSIEMIEAVGKAYLPTFLSQCYALLKPRGKMAIQAITIADQRYESYSNNVDFIQKYIFPGGFLPSISVLTELATKRTGLVLRNLHDIGIDYALTLQHWRDRFEQQLPKVRDLGYDERFIRMWRYYFCYCEGGFLARSISTVHMTFERD | not soluble |
| MKSMPTISRIQRIKEYLSKRKLSQRRKVGVLVDGPNMLRKEFNINLKEIREILSEYGDIKIAKVFLNQYATEKLVEAIENQGFEPIVTSGDVDVRMAVEAMELIYNDSIDAVALVTRDADFKAVLMKAMEMGKETIIIGAEPGFSTALKNSADIAIVLNEDEEKEKGDADEEEIIEV | not soluble |
| MNKYQAVIIGFGKAGKTLAVTLAKAGWRVALIEQSNAMYGGTCINIGCIPTKTLVHDAQQHTDFVRAIQRKNEVVNFLRNKNFHNLADMPNIDVIDGQAEFINNHSLRVHRPEGNLEIHGEKIFINTGAQTVVPPIPGITTTPGVYDSTGLLNLKELPGHLGILGGGYIGVEFASMFANFGSKVTILEAASLFLPREDRDIADNIATILRDQGVDIILNAHVERISHHENQVQVHSEHAQLAVDALLIASGRQPATASLHPENAGIAVNERGAIVVDKRLHTTADNIWAMGDVTGGLQFTYISLDDYRIVRDELLGEGKRSTDDRKNVPYSVFMTPPLSRVGMTEEQARESGADIQVVTLPVAAIPRARVMNDTRGVLKAIVDNKTQRMLGASLLCVDSHEMINIVKMVMDAGLPYSILRDQIFTHPSMSESLNDLFSLVK | soluble |
| GSPGLKGDKGIPGDKGAKGESGLPDVASLRQQVEALQGQVQHLQAAFSQYKKVELFPNGQSVGEKIFKTAGFVKPFTEAQLLCTQAGGQLASPRSAAENAALQQLVVAKNEAAFLSMTDSKTEGKFTYPTGESLVYSNWAPGEPNDDGGSEDCVEIFTNGKWNDRACGEKRLVVCEF | soluble |
| MVSKNKKLNLKDKYQYLTRDMAWEPTYQDKKDIFPEEDFEGIKITDWSQWEDPFRLTMDAYWKYQAEKEKKLYAIFDAFAQNNGHQNISDARYVNALKLFISGISPLEHAAFQGYSKVGRQFSGAGARVACQMQAIDELRHSQTQQHAMSHYNKHFNGLHDGPHMHDRVWYLSVPKSFFDDARSAGPFEFLTAISFSFEYVLTNLLFVPFMSGAAYNGDMATVTFGFSAQSDEARHMTLGLEVIKFILEQHEDNVPIVQRWIDKWFWRGFRLLSLVSMMMDYMLPNKVMSWSEAWEVYYEQNGGALFKDLERYGIRPPKYQDVANDAKHHLSHQLWTTFYQYCQATNFHTWIPEKEEMDWMSEKYPDTFDKYYRPRYEYLAKEAAAGRRFYNNTLPQLCQVCQIPTIFTEKDAPTMLSHRQIEHEGERYHFCSDGCCDIFKHEPEKYIQAWLPVHQIYQGNCEGGDLETVVQKYYHINIGEDNFDYVGSPDQKHWLSIKGRKPADKNQDDA | soluble |
| AIAGANEDQEMELEALRSIYEGDNSFRELSPVSFQYRIGEDGDPKAFLIEVSWTETYPQTAPVISMNAFFNNTISSAVKQSILAKLQEAVEVNLGTAMTYTLFEYAKDHKEQFMENHHPGNSATPVANIISVETPTTAPSSKKKEKKEQLSKAQKRKLADKTDHKGELPRGWNWVDVVKHLSKTGSKDDE | soluble |
| MEKIERLRSAFDEAGIDGILLTNEHSRRYMANFTGTAGVVLISKKRAQFITDFRYVEQASKQAVGYEIVQHAGLIIDEVAKQVKELGIQKLGFEQDTLTYSSYSAHKEAIDAEFIPTSGLVEKLRLIKTDSEIKILKEAAQIADAAFEHILSFIRPGVSEIEVSNELEFFMRKQGATSSSFDIIVASGLRSALPHGVASEKVIETGDFVTLDFGAYYKGYCSDITRTIAVGEPSDKLKEIYNIVLEAQLRGVNGIKAGLTGREADALTRDYITEKGYGEYFGHSTGHGIGLEIHEAPGLAFRSDTVLEPGMAVTVEPGIYIPGIGGVRIEDDIIVTSEGNEVITKSPKELIIL | not soluble |
| MSGIAAGRLAEERKHWRKDHPFGFIAKPVKNADGTLNLFNWECAIPGRKDTIWEGGLYRIRMLFKDDFPSTPPKCKFEPPLFHPNVYPSGTVCLSLLDENKDWKPSISIKQLLIGIQDLLNHPNIEDPAQAEAYQIYCQNRAEYEKRVKKEAVKYAAELVQKQMLE | not soluble |
| MNLHICEVTAKNWRSVVALDVAKDQQQFIESNAFSLAESLYEGNGTSVGLYDSETLVGYAMYGWYSVKHKSVWLDRFMIDQQYQGKGYAKRFLRLLIQFLQEKFECKIIYLSLHPDNKLAMGLYESFGFRLNGDIDDEGPVVGVVMELLIDENTSL | not soluble |
